In the assay the target is Skp1-GST/Cdc4-HA (Saccharomyces cerevisiae, UniProt P52286 1-194; P07834 1-779). The assay can be described thus: pull-down.
Skp1-GST/Cdc4-HA, sequence (P52286 whole entry, chain 1 of 2): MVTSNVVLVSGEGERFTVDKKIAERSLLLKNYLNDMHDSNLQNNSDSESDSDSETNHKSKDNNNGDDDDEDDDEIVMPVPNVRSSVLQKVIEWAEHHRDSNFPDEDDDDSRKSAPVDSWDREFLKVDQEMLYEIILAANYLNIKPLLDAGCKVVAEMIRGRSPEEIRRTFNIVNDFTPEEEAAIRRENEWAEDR
Skp1-GST/Cdc4-HA, sequence (P07834 whole entry, chain 2 of 2): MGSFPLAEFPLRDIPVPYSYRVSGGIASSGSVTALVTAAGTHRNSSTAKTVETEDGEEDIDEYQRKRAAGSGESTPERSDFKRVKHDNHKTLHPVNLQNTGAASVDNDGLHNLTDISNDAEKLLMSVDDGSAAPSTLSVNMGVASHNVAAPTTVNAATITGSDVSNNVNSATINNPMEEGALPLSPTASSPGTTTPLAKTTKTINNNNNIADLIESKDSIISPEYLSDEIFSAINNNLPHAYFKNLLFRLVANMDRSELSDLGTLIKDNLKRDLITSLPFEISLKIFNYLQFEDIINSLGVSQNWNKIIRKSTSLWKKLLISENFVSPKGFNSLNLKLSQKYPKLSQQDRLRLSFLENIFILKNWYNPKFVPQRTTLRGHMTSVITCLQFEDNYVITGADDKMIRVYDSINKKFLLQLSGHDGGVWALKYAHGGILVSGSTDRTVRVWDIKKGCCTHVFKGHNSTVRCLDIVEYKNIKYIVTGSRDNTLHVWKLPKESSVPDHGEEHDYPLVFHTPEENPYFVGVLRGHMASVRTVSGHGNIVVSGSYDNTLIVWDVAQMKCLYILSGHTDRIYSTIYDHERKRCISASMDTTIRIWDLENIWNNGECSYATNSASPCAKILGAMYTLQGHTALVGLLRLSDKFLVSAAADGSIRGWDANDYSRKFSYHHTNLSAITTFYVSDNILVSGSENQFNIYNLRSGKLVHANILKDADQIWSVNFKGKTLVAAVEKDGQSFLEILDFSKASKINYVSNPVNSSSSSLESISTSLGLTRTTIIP

B1: Gpa1-Flag (natural protein, Saccharomyces cerevisiae, UniProt P08539 1-472, looked up)
chain: MGCTVSTQTIGDESDPFLQNKRANDVIEQSLQLEKQRDKNEIKLLLLGAGESGKSTVLKQLKLLHQGGFSHQERLQYAQVIWADAIQSMKILIIQARKLGIQLDCDDPINNKDLFACKRILLKAKALDYINASVAGGSDFLNDYVLKYSERYETRRRVQSTGRAKAAFDEDGNISNVKSDTDRDAETVTQNEDADRNNSSRINLQDICKDLNQEGDDQMFVRKTSREIQGQNRRNLIHEDIAKAIKQLWNNDKGIKQCFARSNEFQLEGSAAYYFDNIEKFASPNYVCTDEDILKGRIKTTGITETEFNIGSSKFKVLDAGGQRSERKKWIHCFEGITAVLFVLAMSEYDQMLFEDERVNRMHESIMLFDTLLNSKWFKDTPFILFLNKIDLFEEKVKSMPIRKYFPDYQGRVGDAEAGLKYFEKIFLSLNKTNKPIYVKRTCATDTQTMKFVLSAVTDLIIQQNLKKIGII
Regarding B1, the binding result is given as “binds”.

Values taken from publication PMC2919228 (Molecular cell, 2010).
